Consider three substances from patent publication US20100028924A1, “Method Of Diagnosing Pon1-Hdl Associated Lipid Disorders” (Rappaport Family Institute Research in the Medical Sciences, priority 2006, published 2010).

The target of experiment [1] is rHDL-apoA-I (reconstituted discoidal HDL particles carrying apolipoprotein A-I). Kind of experiment: SPR, rHDL-apoA-I immobilised; reference Δ20-rePON1-192Q. For orientation: Surface plasmon resonance follows binding to a sensor surface in real time, without labels.
The target is the same in experiment [2]. Kind of experiment: SPR (BIAcore 3000), biotinylated rHDL-apoA-I on streptavidin chip, PON1 injected, 25° C.

Chain of Δ20-rePON1-192R (P27170 other isoform, or with tags, fused parts or gaps mutant): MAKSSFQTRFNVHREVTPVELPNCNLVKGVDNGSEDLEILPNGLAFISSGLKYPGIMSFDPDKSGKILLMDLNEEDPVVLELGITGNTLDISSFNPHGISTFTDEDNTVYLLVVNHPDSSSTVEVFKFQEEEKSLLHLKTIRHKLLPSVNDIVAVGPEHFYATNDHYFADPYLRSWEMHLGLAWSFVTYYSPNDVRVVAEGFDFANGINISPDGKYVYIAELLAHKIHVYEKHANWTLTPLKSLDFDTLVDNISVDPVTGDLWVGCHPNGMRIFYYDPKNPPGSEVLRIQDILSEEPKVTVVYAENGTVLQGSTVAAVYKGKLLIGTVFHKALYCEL
Chain of Δ20-rePON1-192Q (P27170 other isoform, or with tags, fused parts or gaps mutant): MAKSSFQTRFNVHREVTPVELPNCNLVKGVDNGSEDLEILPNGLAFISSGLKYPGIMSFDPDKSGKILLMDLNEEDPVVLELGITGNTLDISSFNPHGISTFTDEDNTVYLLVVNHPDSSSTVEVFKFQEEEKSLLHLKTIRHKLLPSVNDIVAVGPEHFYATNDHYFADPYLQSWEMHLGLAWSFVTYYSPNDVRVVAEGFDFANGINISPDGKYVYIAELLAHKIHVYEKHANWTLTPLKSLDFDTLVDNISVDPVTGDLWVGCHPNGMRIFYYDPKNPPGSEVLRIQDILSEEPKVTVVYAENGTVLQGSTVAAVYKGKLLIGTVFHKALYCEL
Chain of wt Δ20-rePON1-192K (P27170 other isoform, or with tags, fused parts or gaps mutant): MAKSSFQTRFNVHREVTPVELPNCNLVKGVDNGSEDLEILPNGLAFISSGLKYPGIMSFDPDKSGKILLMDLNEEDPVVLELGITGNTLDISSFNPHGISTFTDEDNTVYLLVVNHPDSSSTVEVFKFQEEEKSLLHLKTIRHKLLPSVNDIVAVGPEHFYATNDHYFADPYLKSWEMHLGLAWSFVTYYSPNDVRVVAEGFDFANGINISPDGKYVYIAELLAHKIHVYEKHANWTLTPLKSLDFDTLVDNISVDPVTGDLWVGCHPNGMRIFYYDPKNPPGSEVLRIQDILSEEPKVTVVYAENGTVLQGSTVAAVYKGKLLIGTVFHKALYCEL

In experiment [1], “wt Δ20-rePON1-192K (from UniProt P27170 21-355) (enzyme)” displayed a fold higher HDL binding affinity than the Q isozyme of 3 fold. In addition, in experiment [2], the equilibrium dissociation constant (Kd) (commonly the constant that tells how readily two partners part at equilibrium) amounted to 100 nM; the koff (as a rule, the first-order rate constant of dissociation) was 0.02 s⁻¹; the kon – broadly, a measure of how fast the partners come together – was 200000 M⁻¹ s⁻¹.

In experiment [2], “Δ20-rePON1-192Q (from UniProt P27170 21-355) (enzyme)” registered a Kd of 300 nM, an off-rate constant (koff) of 0.042 s⁻¹ and a kon of 140000 M⁻¹ s⁻¹.

“Δ20-rePON1-192R (from UniProt P27170 21-355) (enzyme)” came in with a fold higher HDL affinity than the Q isozyme in experiment [1] of 3 fold. In experiment [2], this substance returned a Kd of 110 nM, a koff of 0.029 s⁻¹ and a kon of 260000 M⁻¹ s⁻¹.
